The record followed here is patent US4843003.

This series has as its system Exonuclease III (Escherichia coli). The series can be described thus: cleavage_in_vitro. Conditions: 37 C, 66 mM Tris-HCl pH 8, 0.66 mM MgCl2.

For the substance “M13 mp18 with 4.5 kb EcoRI Drosophila Gart insert, SalI/SphI cut”, the activity (nucleotides/min) (after 25 s delay, one-way digestion, no sequence preference seen) was found to be 450. Regarding “Bacteriophage lambda DNA SstI terminal fragments (24.8 kb and 22.6 kb), 5' 12-nt protruding end”, the activity (nucleotides/min) (digested from 5' protruding end, not from SstI 3' protruding end, 14.4 kb removed per end in 32 min) was 450.
